Laboratory results reported in US20070224189A1 (published 2007).

Target: extracellular region of human V158 FcγRIIIa fused with glutathione S-Transferase (GST) (human, UniProt P08637 17-208)
Experiment: AlphaScreen competition

B1: WT alemtuzumab (antibody)
chain 1: not shown
chain 2: not shown
IC50: 4.6 nM
